Measurements reported in patent US11835506 (RADIUS HEALTH, dated 2023).
One block for each binder: values may come before it.

Target: PTH receptors
Assay: cell-based or functional assay

EC50, production of cAMP in a cell base potency assay for functional PTH activity: 3.3 ng/mL
B1: (beta-Asp10) abaloparatide ([b-Asp10, Glu22,25, Leu23,28,31, Aib29, Lys26,30]hPTHrP(1-34)NH2) (peptide)
peptide: AVSEHQLLHXKGKSIQDLRRRELLEKLLXKLHTA
modifications: beta-Asp at position 10; Aib (2-aminoisobutyric acid) at position 29; C-terminal amide (NH2)

EC50, production of cAMP in a cell base potency assay for functional PTH activity: 0.325 ng/mL
Binder: AVSEHQLLHDKGKSIQDLRRRELLEKLLXKLHTA (Aib (2-aminoisobutyric acid) at position 29; C-terminal amide (NH2)) [abaloparatide ([Glu22,25, Leu23,28,31, Aib29, Lys26,30]hPTHrP(1-34)NH2)]
